These results are taken from patent publication US20160222130A1 (Astellas, published 2016).

Holding throughout (assay): ELISA; Tie2-Fc coated at 1 ug/mL; signal at 100 ng/mL antibody vs convergence value on the parent
For one assay, the target named is T1, Human Tie2 (1-452)A5-Fc (human, UniProt Q02763 23-452).
T1 construct: range 1-452
The method, then:
(§1) The next day, the immobilized solution was removed, and the plate was washed with a TBS-T solution, and incubated for 60 minutes by the addition of 50 μL of a Blocker™ Casein in TBS (Thermo Fisher Scientific Inc., 37532) to perform blocking. The resultant was washed with a TBS-T solution, and TIE-1-Igγ1-LALA, diluted with 0.05% Tween 20 (Nacalai Tesque Inc., 28353-85)—containing Blocker™ Casein in TBS from 0.03 ng/mL to 100 ng/mL through eight steps, was added thereto in the amount of 20 μL per well. The resultant was incubated at room temperature for 90 minutes and then washed with a TBS-T solution three times, and 20 μL of a biotin-labeled anti-human kappa light chain antibody, which had been diluted to 0.1 μg/mL with 0.05% Tween 20-containing Blocker™ Casein in TBS, was added thereto. The resultant was incubated at room temperature for 60 minutes and then washed with a TBS-T solution three times, and 20 μL of alkaline phosphatase-labeled streptavidin, which had been diluted to 0.1 μg/mL with 0.05% Tween 20-containing Blocker™ Casein in TBS, was added thereto. The resultant was incubated at room temperature for 60 minutes and then washed with a TBS-T solution three times, and 50 μL of Chemiluminescent Ultra Sensitive AP Microwell and/or Membrane Substrate (450 nm), which had been 5-fold diluted with 1 mM MgCl₂-containing 20 mM TBS (pH 9.8) as a substrate, was added thereto. The resultant was incubated at room temperature under light-shielding for 40 minutes, and then luminescent intensity thereof was measured with an EnVision™ multi-label counter. The EC₅₀ value of TIE-1-Igγ1-LALA with respect to the human Tie2 (1-452)-Fc chimeric protein and 23 mutant proteins thereof were calculated. The relative value of luminescent intensity of 100 ng/mL TIE-1-Igγ1-LALA as maximum concentration point with respect to human Tie2 (1-452)-Fc chimeric protein and 23 mutant proteins thereof when the convergence value of the sigmoid curve of TIE-1-Igγ1-LALA binding to the human Tie2 (1-452)-Fc chimeric protein which was taken as 100% was calculated (Table 8 and Table 9). Further, the EC₅₀ value and the convergence value were calculated by Sigmoid-Emax model non-linear regression analysis.

Assay [1] deals with T2, human Tie2 (1-452)-Fc chimeric protein (human, UniProt Q02763 23-452).
T2 construct: range 1-452; The stated range 1-452 begins at residue 1 of the precursor
T2 sequence (Q02763 other isoform, or with tags, fused parts or gaps mutant limits assumed, form in doubt): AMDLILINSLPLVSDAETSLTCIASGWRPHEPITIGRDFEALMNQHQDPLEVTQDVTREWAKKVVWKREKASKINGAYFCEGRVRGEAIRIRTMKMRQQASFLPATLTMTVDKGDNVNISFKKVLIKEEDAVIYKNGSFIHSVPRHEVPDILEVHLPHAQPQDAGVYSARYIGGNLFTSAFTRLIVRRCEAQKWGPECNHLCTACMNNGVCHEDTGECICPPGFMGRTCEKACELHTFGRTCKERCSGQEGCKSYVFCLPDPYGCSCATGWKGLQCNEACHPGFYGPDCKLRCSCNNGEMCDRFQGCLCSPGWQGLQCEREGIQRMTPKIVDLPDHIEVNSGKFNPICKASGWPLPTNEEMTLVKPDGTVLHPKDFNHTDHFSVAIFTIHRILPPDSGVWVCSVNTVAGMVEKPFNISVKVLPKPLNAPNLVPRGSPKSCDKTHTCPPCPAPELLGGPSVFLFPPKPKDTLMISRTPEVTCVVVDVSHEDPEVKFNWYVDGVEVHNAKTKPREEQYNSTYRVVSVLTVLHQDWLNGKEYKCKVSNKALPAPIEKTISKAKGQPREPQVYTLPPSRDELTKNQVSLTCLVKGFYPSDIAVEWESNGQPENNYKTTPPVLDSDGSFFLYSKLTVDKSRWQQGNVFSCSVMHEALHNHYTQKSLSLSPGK
The method, then:
as §1

In another assay the target is T3, Human Tie2 (1-452)A6-Fc (human, UniProt Q02763 23-452).
T3 construct: range 1-452
T3 sequence (Q02763 other isoform, or with tags, fused parts or gaps limits assumed, form in doubt): as the sequence (Q02763 other isoform, or with tags, fused parts or gaps mutant limits assumed, form in doubt) above, with P144A counted along it
As to the method: as §1

Another assay concerns the target T4, Human Tie2 (1-452)A4-Fc (human, UniProt Q02763 23-452).
T4 construct: range 1-452
As to the method:
as §1

In a further assay the target is T5, Human Tie2 (1-452)A3-Fc (human, UniProt Q02763 23-452).
T5 construct: range 1-452
T5 sequence (Q02763 other isoform, or with tags, fused parts or gaps limits assumed, form in doubt): as the sequence (Q02763 other isoform, or with tags, fused parts or gaps mutant limits assumed, form in doubt) above, with Y134A counted along it
As to the method: as §1

The target of another assay is T6, Human Tie2 (1-452)A2-Fc (human, UniProt Q02763 23-452).
T6 construct: range 1-452
T6 sequence (Q02763 other isoform, or with tags, fused parts or gaps limits assumed, form in doubt): as the sequence (Q02763 other isoform, or with tags, fused parts or gaps mutant limits assumed, form in doubt) above, with V132A counted along it
The method, then: as §1

A further assay has as its target T7, Human Tie2 (1-452)A1-Fc (human, UniProt Q02763 23-452).
T7 construct: range 1-452
The method, then: as §1

T1 sequence (Q02763 other isoform, or with tags, fused parts or gaps limits assumed, form in doubt): as the sequence (Q02763 other isoform, or with tags, fused parts or gaps mutant limits assumed, form in doubt) above, with S142A counted along it
T7 sequence (Q02763 other isoform, or with tags, fused parts or gaps limits assumed, form in doubt): as the sequence (Q02763 other isoform, or with tags, fused parts or gaps mutant limits assumed, form in doubt) above, with E129A counted along it
T4 sequence (Q02763 other isoform, or with tags, fused parts or gaps limits assumed, form in doubt): as the sequence (Q02763 other isoform, or with tags, fused parts or gaps mutant limits assumed, form in doubt) above, with F139A counted along it

B1: TIE-1-Igγ1-LALA (antibody, human IgG1, kappa, L234A L235A)
heavy: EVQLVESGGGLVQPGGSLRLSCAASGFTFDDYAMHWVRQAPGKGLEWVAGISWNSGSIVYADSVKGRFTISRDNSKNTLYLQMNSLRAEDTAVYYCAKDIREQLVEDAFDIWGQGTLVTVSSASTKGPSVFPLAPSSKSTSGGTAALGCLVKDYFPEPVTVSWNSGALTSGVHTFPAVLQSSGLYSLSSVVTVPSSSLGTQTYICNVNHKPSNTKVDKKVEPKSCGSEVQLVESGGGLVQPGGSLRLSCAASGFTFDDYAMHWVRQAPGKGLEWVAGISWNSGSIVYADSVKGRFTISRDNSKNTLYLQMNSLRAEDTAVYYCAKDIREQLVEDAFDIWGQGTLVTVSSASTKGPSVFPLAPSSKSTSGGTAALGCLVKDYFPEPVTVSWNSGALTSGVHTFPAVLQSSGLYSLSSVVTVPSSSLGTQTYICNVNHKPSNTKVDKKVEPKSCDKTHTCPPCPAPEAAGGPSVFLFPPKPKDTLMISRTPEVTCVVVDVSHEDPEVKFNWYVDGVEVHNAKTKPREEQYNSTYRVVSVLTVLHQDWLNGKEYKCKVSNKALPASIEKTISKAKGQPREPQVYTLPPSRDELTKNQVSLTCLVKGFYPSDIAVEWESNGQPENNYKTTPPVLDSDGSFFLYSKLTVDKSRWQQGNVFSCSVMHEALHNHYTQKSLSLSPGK
light: DIQMTQSPSSLSASVGDRVTITCRSSQSLLHSHRYNYLDWYQQKPGKAPKLLIYLGSNRASGVPSRFSGSGSGTDFTLTISSVQPEDFATYYCMQTLQTPLTFGQGTKVEIKRTVAAPSVFIFPPSDEQLKSGTASVVCLLNNFYPREAKVQWKVDNALQSGNSQESVTEQDSKDSTYSLSSTLTLSKADYEKHKVYACEVTHQGLSSPVTKSFNRGEC
notes: Tandem tetravalent format: two heavy chains (VH-CH1-linker-VH-CH1-CH2-CH3) and four light chains; also called tetravalent anti-human Tie2 antibody with L234A, L235A and P331S
As for B1, the “Relative value (%) of luminescent intensity” value with Human Tie2 (1-452)A5-Fc is 98%; in assay [1], 98%; in the assay with Human Tie2 (1-452)A6-Fc it was 99%; in the assay with Human Tie2 (1-452)A4-Fc, 100%; with Human Tie2 (1-452)A3-Fc, 98%; in the assay with Human Tie2 (1-452)A2-Fc, 95%. In addition, the “Relative value (%) of luminescent intensity” value with Human Tie2 (1-452)A1-Fc was found to be 90%.
